In patent US7354588B1, “Functional derivatives of ICAM-1 with altered ability to bind LFA-1 or HRV” (Dana Farber Cancer Institute, priority 1987, dated 2008):

Columns and labels:
[1] = molecular target: T1, LFA-1 (Homo sapiens, UniProt P05107+P20701); test: Adherence of COS cells expressing ICAM-1 or ICAM-1 mutants to plastic-bound purified LFA-1; format: cell-based; conditions: for LFA-1 Binding %: COS cells expressing ICAM-1 mutant adhering to LFA-1 coated plastic, normalized for percent of cells expressing mutant and for wild type binding, mean
T1 construct: endogenous in cells

[2] = system: R6.5 mAb; test: Indirect immunofluorescence flow cytofluorometry: mAb R6.5 binding to COS cells expressing ICAM-1 mutants (SLFI, % CL203); format: cell-based; conditions: SLFI normalized to CL203 SLFI of the mutant
Experimental: (§1) For HRV binding studies, COS cells were reseeded in a 24 well plate. One day later, the confluent monolayer was washed twice with 1 ml of RPMI 1640/10 mM MgCl2/25 mM Hepes pH 7.3 (rhinovirus-14 buffer). Transfected COS cells were labeled with 51Cr for binding to LFA-1 coated plastic as previously described (Staunton, D. E., et al., Nature 339:61-64 (1989). Immunoprecipitation and indirect immunofluorescence was performed using ICAM-1 MAb RR1/1 (Rothlein, R., et al., J. Immunol. 137:1270-1274 (1986)), R6.5 (Rothlein, R., et al., J. Immunol. 141:1665-1669 (1988)), LB-1 (Clark, E. A., et al., Hum. Immunol. 16:100-113 (1986)) and CL203 (Maio, M., J. Immunol. 143:181-188 (1989), all of which references are incorporated herein by reference).
(§2) Binding of RR1, R6.5, and LB-2 mAb was normalized to binding of CL203 mAb using Specific Linear Fluorescence Intensity (SLFI): % CL203=(mAbSLFI)×100)/CL203mABSLFI
(§3) In Table 25, the notation for the mutations uses the one-letter code for the wild-type sequence followed by a slash and the one-letter code for the corresponding mutant sequence. The position of the first amino acid within the sequence is indicated. Wild type residues precede the slash followed by the residues they were substituted for in the mutant. COS cells expressing ICAM-1 mutants were tested for adherence to LFA-1 coated plastic and for binding 35S met-labeled HRV14. LFA-1 and HRV14 binding is normalized for percent of cells expressing mutant ICAM-1 and for binding of wild type expressing cells. Binding is presented as mean and standard error (SE) for multiple experiments (n). Effects of two-fold or greater were reproducible in LFA-1, HRV and mAb binding assays and thus considered significant (bold and underlined). The specific linear fluorescence intensity (SLFI) of CL203 for each mutant is normalized to that of wild type CL203 SLFI (% WT) as discussed above. The SLFI of RR1/1, R6.5 and LB-2 SLFI is normalized to the CL203 SLFI of the mutant (% CL203) as described above.

[3] = system: RR1/1 mAb; test: Indirect immunofluorescence flow cytofluorometry: mAb RR1/1 binding to COS cells expressing ICAM-1 mutants (SLFI, % CL203); format: cell-based; conditions: SLFI normalized to CL203 SLFI of the mutant
Experimental: as §1, §2, §3

[4] = system: LB-2 mAb; test: Indirect immunofluorescence flow cytofluorometry: mAb LB-2 binding to COS cells expressing ICAM-1 mutants (SLFI, % CL203); format: cell-based; conditions: SLFI normalized to CL203 SLFI of the mutant
Experimental: as §1, §2, §3

[5] = system: CL203 mAb; test: Indirect immunofluorescence flow cytofluorometry: mAb CL203 binding to COS cells expressing ICAM-1 mutants (SLFI, % WT); format: cell-based; conditions: SLFI of CL203 for mutant normalized to wild type CL203 SLFI; level of expression
Experimental: as §1, §2, §3

[6] = system: HRV14; test: Binding of [^35S]-Met labeled HRV14 to COS cells expressing ICAM-1 mutants; format: cell-based, human rhinovirus 14; conditions: for HRV Binding %: 35S met-labeled HRV14 binding to COS cells expressing ICAM-1 mutant, normalized for percent of cells expressing mutant and for wild type binding, mean; for decrease in HRV14 binding: COS cells expressing the mutant, relative to wild type

T1 sequence (P20701 26-1170): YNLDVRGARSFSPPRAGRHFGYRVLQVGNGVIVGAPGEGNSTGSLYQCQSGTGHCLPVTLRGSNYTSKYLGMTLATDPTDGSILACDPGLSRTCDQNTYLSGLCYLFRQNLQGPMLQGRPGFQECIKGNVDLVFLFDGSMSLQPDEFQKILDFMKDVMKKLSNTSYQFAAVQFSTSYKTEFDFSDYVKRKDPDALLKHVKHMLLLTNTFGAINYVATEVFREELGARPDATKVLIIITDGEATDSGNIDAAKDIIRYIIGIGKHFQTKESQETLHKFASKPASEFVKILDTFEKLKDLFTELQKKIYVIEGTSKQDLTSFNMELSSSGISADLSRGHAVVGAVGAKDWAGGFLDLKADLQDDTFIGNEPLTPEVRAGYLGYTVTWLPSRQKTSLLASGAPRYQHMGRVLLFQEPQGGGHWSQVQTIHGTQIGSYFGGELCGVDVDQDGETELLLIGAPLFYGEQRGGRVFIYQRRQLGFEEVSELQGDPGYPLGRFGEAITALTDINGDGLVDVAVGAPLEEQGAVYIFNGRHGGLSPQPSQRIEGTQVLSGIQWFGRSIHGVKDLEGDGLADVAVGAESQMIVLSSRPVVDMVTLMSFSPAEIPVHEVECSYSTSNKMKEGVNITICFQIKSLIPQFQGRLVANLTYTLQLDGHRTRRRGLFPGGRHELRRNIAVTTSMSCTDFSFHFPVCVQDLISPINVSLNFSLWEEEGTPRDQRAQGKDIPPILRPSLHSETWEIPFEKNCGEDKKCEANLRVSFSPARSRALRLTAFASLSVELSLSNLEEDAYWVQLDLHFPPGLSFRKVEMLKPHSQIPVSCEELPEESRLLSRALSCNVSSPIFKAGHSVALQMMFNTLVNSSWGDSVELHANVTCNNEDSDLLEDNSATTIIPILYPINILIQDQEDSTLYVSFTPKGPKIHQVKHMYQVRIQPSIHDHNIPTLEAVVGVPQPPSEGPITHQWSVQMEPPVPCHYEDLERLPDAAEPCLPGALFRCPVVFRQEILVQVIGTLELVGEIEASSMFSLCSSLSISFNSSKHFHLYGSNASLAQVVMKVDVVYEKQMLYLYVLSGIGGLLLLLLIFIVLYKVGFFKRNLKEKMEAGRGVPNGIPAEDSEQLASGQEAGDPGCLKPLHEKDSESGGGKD
T1 sequence (P05107 23-769): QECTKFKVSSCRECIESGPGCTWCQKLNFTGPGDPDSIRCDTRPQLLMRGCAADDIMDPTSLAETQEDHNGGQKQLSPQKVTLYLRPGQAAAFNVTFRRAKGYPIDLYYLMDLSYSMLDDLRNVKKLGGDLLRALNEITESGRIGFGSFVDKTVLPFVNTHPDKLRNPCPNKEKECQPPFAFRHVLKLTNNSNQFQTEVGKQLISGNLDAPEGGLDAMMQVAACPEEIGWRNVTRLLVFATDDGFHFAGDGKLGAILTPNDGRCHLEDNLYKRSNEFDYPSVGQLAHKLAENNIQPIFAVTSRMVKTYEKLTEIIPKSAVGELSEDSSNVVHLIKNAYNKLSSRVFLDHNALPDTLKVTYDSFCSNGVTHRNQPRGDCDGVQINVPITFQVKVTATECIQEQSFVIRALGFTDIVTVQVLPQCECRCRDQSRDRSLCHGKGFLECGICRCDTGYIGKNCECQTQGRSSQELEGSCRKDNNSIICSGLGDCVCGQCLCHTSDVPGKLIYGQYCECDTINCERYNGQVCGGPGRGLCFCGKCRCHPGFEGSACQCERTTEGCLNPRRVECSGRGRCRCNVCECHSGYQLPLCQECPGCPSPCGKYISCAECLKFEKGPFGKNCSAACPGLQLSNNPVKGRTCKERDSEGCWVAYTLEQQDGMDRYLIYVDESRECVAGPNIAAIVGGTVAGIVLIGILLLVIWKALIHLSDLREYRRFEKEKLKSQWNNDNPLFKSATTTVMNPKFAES

| Molecule | LFA-1 Binding % [1] [%] | decrease in LFA-1 binding ([1]; COS cells expressing the mutant, relative to wild type) | SLFI (% CL203) R6.5 [2] [% CL203] | SLFI (% CL203) RR/1 [3] [% CL203] | SLFI (% CL203) LB-2 [4] [% CL203] | Cl203 % WT (SLFI) [5] [% WT] | HRV Binding % [6] [%] | decrease in HRV14 binding [6] |
| --- | --- | --- | --- | --- | --- | --- | --- | --- |
| S177/G: ICAM-1 domain 2 substitution mutant affecting an N-linked glycosylation site (protein, UniProt P05362 28-532, looked up, variant S177G) Intercellular adhesion …: QTSVSPSKVILPRGGSVLVTCSTSCDQPKLLGIETPLPKKELLLPGNNRKVYELSNVQEDSQPMCYSNCPDGQSTAKTFLTVYWTPERVELAPLPSWQPVGKNLTLRCQVEGGAPRANLTVVLLRGEKELKREPAVGEPAEVTTTVLVRRDHHGANFSCRTELDLRPQGLELFENTGAPYQLQTFVLPATPPQLVSPRVLEVDTQGTVVCSLDGLFPVSEAQVHLALGDQRLNPTVTYGNDSFSAKASVSVTAEDEGTQRLTCAVILGNQSQETLQTVTIYSFPAPNVILTKPEVSEGTEVTVKCEAHPRAKVTLNGVPAQPLGPRAQLLLKATPEDNGRSFSCSATLEVAGQLIHKNQTRELRVLYGPRLDERDCPGNWTWPENSQQTPMCQAWGNPLPELKCLKDGTFPLPIGESVTVTRDLEGTYLCRARSTQGEVTRKVTVNVLSPRYEIVIITVVAAAVIMGTAGLSTYLYNRQRKIKKYRLQQAQKGTPMKPNTQATPP | 59 | approximately two-fold | 118 | 136 | 90 | 87 | 66 |  |
| R49KV/EKL: ICAM-1 substitution mutant, R49KV to EKL (protein, UniProt P05362 28-532, looked up, variant R49E V51L) Intercellular adhesion …: QTSVSPSKVILPRGGSVLVTCSTSCDQPKLLGIETPLPKKELLLPGNNEKLYELSNVQEDSQPMCYSNCPDGQSTAKTFLTVYWTPERVELAPLPSWQPVGKNLTLRCQVEGGAPRANLTVVLLRGEKELKREPAVGEPAEVTTTVLVRRDHHGANFSCRTELDLRPQGLELFENTSAPYQLQTFVLPATPPQLVSPRVLEVDTQGTVVCSLDGLFPVSEAQVHLALGDQRLNPTVTYGNDSFSAKASVSVTAEDEGTQRLTCAVILGNQSQETLQTVTIYSFPAPNVILTKPEVSEGTEVTVKCEAHPRAKVTLNGVPAQPLGPRAQLLLKATPEDNGRSFSCSATLEVAGQLIHKNQTRELRVLYGPRLDERDCPGNWTWPENSQQTPMCQAWGNPLPELKCLKDGTFPLPIGESVTVTRDLEGTYLCRARSTQGEVTRKVTVNVLSPRYEIVIITVVAAAVIMGTAGLSTYLYNRQRKIKKYRLQQAQKGTPMKPNTQATPP | 123 |  | 97 | 103 | 52 | 233 | 49 | two-fold |
| D71/N: ICAM-1 substitution mutant, D71 to N (protein, UniProt P05362 28-532, looked up, variant D71N) Intercellular adhesion …: QTSVSPSKVILPRGGSVLVTCSTSCDQPKLLGIETPLPKKELLLPGNNRKVYELSNVQEDSQPMCYSNCPNGQSTAKTFLTVYWTPERVELAPLPSWQPVGKNLTLRCQVEGGAPRANLTVVLLRGEKELKREPAVGEPAEVTTTVLVRRDHHGANFSCRTELDLRPQGLELFENTSAPYQLQTFVLPATPPQLVSPRVLEVDTQGTVVCSLDGLFPVSEAQVHLALGDQRLNPTVTYGNDSFSAKASVSVTAEDEGTQRLTCAVILGNQSQETLQTVTIYSFPAPNVILTKPEVSEGTEVTVKCEAHPRAKVTLNGVPAQPLGPRAQLLLKATPEDNGRSFSCSATLEVAGQLIHKNQTRELRVLYGPRLDERDCPGNWTWPENSQQTPMCQAWGNPLPELKCLKDGTFPLPIGESVTVTRDLEGTYLCRARSTQGEVTRKVTVNVLSPRYEIVIITVVAAAVIMGTAGLSTYLYNRQRKIKKYRLQQAQKGTPMKPNTQATPP | 79 |  | 94 | 44 | 83 | 109 | 62 | two-fold |
| K39KE/ERQ: ICAM-1 substitution mutant, K39KE to ERQ (protein, UniProt P05362 28-532, looked up, variant K39E K40R E41Q) Intercellular adhesion …: QTSVSPSKVILPRGGSVLVTCSTSCDQPKLLGIETPLPERQLLLPGNNRKVYELSNVQEDSQPMCYSNCPDGQSTAKTFLTVYWTPERVELAPLPSWQPVGKNLTLRCQVEGGAPRANLTVVLLRGEKELKREPAVGEPAEVTTTVLVRRDHHGANFSCRTELDLRPQGLELFENTSAPYQLQTFVLPATPPQLVSPRVLEVDTQGTVVCSLDGLFPVSEAQVHLALGDQRLNPTVTYGNDSFSAKASVSVTAEDEGTQRLTCAVILGNQSQETLQTVTIYSFPAPNVILTKPEVSEGTEVTVKCEAHPRAKVTLNGVPAQPLGPRAQLLLKATPEDNGRSFSCSATLEVAGQLIHKNQTRELRVLYGPRLDERDCPGNWTWPENSQQTPMCQAWGNPLPELKCLKDGTFPLPIGESVTVTRDLEGTYLCRARSTQGEVTRKVTVNVLSPRYEIVIITVVAAAVIMGTAGLSTYLYNRQRKIKKYRLQQAQKGTPMKPNTQATPP | 99 |  | 93 | 47 | 87 | 84 | 61 | two-fold |
| G46NN/ASI: ICAM-1 substitution mutant, G46NN to ASI (protein, UniProt P05362 28-532, looked up, variant G46A N47S N48I) Intercellular adhesion …: QTSVSPSKVILPRGGSVLVTCSTSCDQPKLLGIETPLPKKELLLPASIRKVYELSNVQEDSQPMCYSNCPDGQSTAKTFLTVYWTPERVELAPLPSWQPVGKNLTLRCQVEGGAPRANLTVVLLRGEKELKREPAVGEPAEVTTTVLVRRDHHGANFSCRTELDLRPQGLELFENTSAPYQLQTFVLPATPPQLVSPRVLEVDTQGTVVCSLDGLFPVSEAQVHLALGDQRLNPTVTYGNDSFSAKASVSVTAEDEGTQRLTCAVILGNQSQETLQTVTIYSFPAPNVILTKPEVSEGTEVTVKCEAHPRAKVTLNGVPAQPLGPRAQLLLKATPEDNGRSFSCSATLEVAGQLIHKNQTRELRVLYGPRLDERDCPGNWTWPENSQQTPMCQAWGNPLPELKCLKDGTFPLPIGESVTVTRDLEGTYLCRARSTQGEVTRKVTVNVLSPRYEIVIITVVAAAVIMGTAGLSTYLYNRQRKIKKYRLQQAQKGTPMKPNTQATPP | 49 |  | 107 | 140 | 113 | 151 | 9 | ten-fold |
| Q1T/KA: ICAM-1 substitution mutant, Q1T to KA (protein, UniProt P05362 28-532, looked up, variant Q1K T2A) Intercellular adhesion …: KASVSPSKVILPRGGSVLVTCSTSCDQPKLLGIETPLPKKELLLPGNNRKVYELSNVQEDSQPMCYSNCPDGQSTAKTFLTVYWTPERVELAPLPSWQPVGKNLTLRCQVEGGAPRANLTVVLLRGEKELKREPAVGEPAEVTTTVLVRRDHHGANFSCRTELDLRPQGLELFENTSAPYQLQTFVLPATPPQLVSPRVLEVDTQGTVVCSLDGLFPVSEAQVHLALGDQRLNPTVTYGNDSFSAKASVSVTAEDEGTQRLTCAVILGNQSQETLQTVTIYSFPAPNVILTKPEVSEGTEVTVKCEAHPRAKVTLNGVPAQPLGPRAQLLLKATPEDNGRSFSCSATLEVAGQLIHKNQTRELRVLYGPRLDERDCPGNWTWPENSQQTPMCQAWGNPLPELKCLKDGTFPLPIGESVTVTRDLEGTYLCRARSTQGEVTRKVTVNVLSPRYEIVIITVVAAAVIMGTAGLSTYLYNRQRKIKKYRLQQAQKGTPMKPNTQATPP | 119 |  | 115 | 94 | 113 | 230 | 11 | ten-fold |
